In US20240043537A1:

Tests used:
CD3 on T-cells = CD3 on T-cells (UniProt P07766); assay: cell-based or functional assay
[1] = target: CD3 (as used for the BIACORE kinetics of Table 11) (UniProt P07766); assay: SPR (BIACORE)
Chain of CD3 (as used for the BIACORE kinetics of Table 11) (P07766 23-126): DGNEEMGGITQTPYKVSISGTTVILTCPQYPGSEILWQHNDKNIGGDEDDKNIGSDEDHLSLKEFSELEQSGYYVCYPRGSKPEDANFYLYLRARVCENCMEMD

Chain of CD3 on T-cells (P07766 23-207): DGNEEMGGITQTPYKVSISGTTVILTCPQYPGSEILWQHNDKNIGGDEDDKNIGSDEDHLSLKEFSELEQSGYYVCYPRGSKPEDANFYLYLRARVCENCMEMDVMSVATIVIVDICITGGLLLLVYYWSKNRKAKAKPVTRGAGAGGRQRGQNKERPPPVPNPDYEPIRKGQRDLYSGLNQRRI

EC50 of cytolysis at 18 hours (CTL assay, Pan-T-cells and MOLM-13, E:T = 5:1) (CD3 on T-cells)	EC50 of cytolysis at 42 hours (CTL assay, Pan-T-cells and MOLM-13, E:T = 5:1) (CD3 on T-cells)	R: ratio of 18 hour EC50 to DART-A-WT (CTL assay, Pan-T-cells and MOLM-13, E:T = 5:1) (CD3 on T-cells)	R: ratio of 42 hour EC50 to DART-A-WT (CTL assay, Pan-T-cells and MOLM-13, E:T = 5:1) (CD3 on T-cells)	Kd [1]	R (KD ratio to DART-A-WT) [1]	R (ka ratio to DART-A-WT) [1]	R (kd ratio to DART-A-WT) [1]	koff [1]	kon [1]	Binder	max % CytoTox at 18 hours (CTL assay, Pan-T-cells and MOLM-13, E:T = 5:1) (CD3 on T-cells)	max % CytoTox at 42 hours (CTL assay, Pan-T-cells and MOLM-13, E:T = 5:1) (CD3 on T-cells)
0.68 ng/mL	0.11 ng/mL	8.6	39.1	54.6 nM	6.7	1.5	10	0.0411 s⁻¹	753000 M⁻¹ s⁻¹	DART-A-M19 (bispecific antibody) chain 1: DFVMTQSPDSLAVSLGERVTMSCKSSQSLLNSGNQKNYLTWYQQKPGQPPKLLIYWASTRESGVPDRFSGSGSGTDFTLTISSLQAEDVAVYYCQNDYSYPYTFGQGTKLEIKGGGSGGGGEVQLVESGGGLVQPGGSLRLSCAASGFTFSTYAMNWVRQAPGKGLEWVGRIRSKYNNYATYYADSVKDRFTISRDDSKNSLYLQMNSLKTEDTAVYYCVRHKNIGNSYVSWFAYWGQGTLVTVSSGGCGGGKVAALKEKVAALKEKVAALKEKVAALKE chain 2: QAVVTQEPSLTVSPGGTVTLTCRSSTGAVTTSNYANWVQQKPGQAPRGLIGGTNKRAPWTPARFSGSLLGGKAALTITGAQAEDEADYYCALWYSNLWVFGGGTKLTVLGGGGSGGGGEVQLVQSGAELKKPGASVKVSCKASGYTFTDYYMKWVRQAPGQGLEWIGDIIPSNGATFYNQKFKGRVTITVDKSTSTAYMELSSLRSEDTAVYYCARSHLLRASWFAYWGQGTLVTVSSGGCGGGEVAALEKEVAALEKEVAALEKEVAALEK	41%	32.8%
8.11 ng/mL	0.693 ng/mL	103	247	12.7 nM	1.6	6.1	9.6	0.0391 s⁻¹	3.07e+06 M⁻¹ s⁻¹	DART-A-M2 (bispecific antibody) chain 1: DFVMTQSPDSLAVSLGERVTMSCKSSQSLLNSGNQKNYLTWYQQKPGQPPKLLIYWASTRESGVPDRFSGSGSGTDFTLTISSLQAEDVAVYYCQNDYSYPYTFGQGTKLEIKGGGSGGGGEVQLVESGGGLVQPGGSLRLSCAASGFTFSTYAMNWVRQAPGKGLEWVGRIRSKYNNYATYYADSVKDRFTISRDDSKNSLYLQMNSLKTEDTAVYYCVRHKNFGNSYVTWFAYWGQGTLVTVSSGGCGGGKVAALKEKVAALKEKVAALKEKVAALKE chain 2: QAVVTQEPSLTVSPGGTVTLTCRSSTGAVTTSNYANWVQQKPGQAPRGLIGGTNKRAPWTPARFSGSLLGGKAALTITGAQAEDEADYYCALWYSNLWVFGGGTKLTVLGGGGSGGGGEVQLVQSGAELKKPGASVKVSCKASGYTFTDYYMKWVRQAPGQGLEWIGDIIPSNGATFYNQKFKGRVTITVDKSTSTAYMELSSLRSEDTAVYYCARSHLLRASWFAYWGQGTLVTVSSGGCGGGEVAALEKEVAALEKEVAALEKEVAALEK	32.3%	32.8%
4.69 ng/mL	0.91 ng/mL	59.3	324	205 nM	25	0.6	14	0.0588 s⁻¹	287000 M⁻¹ s⁻¹	DART-A-M18 (bispecific antibody) chain 1: DFVMTQSPDSLAVSLGERVTMSCKSSQSLLNSGNQKNYLTWYQQKPGQPPKLLIYWASTRESGVPDRFSGSGSGTDFTLTISSLQAEDVAVYYCQNDYSYPYTFGQGTKLEIKGGGSGGGGEVQLVESGGGLVQPGGSLRLSCAASGFTFSTYGMNWVRQAPGKGLEWVGRIRSKYNNYATYYADSVKDRFTISRDDSKNSLYLQMNSLKTEDTAVYYCVRHGNFGNSYVSWFAYWGQGTLVTVSSGGCGGGKVAALKEKVAALKEKVAALKEKVAALKE chain 2: QAVVTQEPSLTVSPGGTVTLTCRSSTGAVTTSNYANWVQQKPGQAPRGLIGGTNKRAPWTPARFSGSLLGGKAALTITGAQAEDEADYYCALWYSNLWVFGGGTKLTVLGGGGSGGGGEVQLVQSGAELKKPGASVKVSCKASGYTFTDYYMKWVRQAPGQGLEWIGDIIPSNGATFYNQKFKGRVTITVDKSTSTAYMELSSLRSEDTAVYYCARSHLLRASWFAYWGQGTLVTVSSGGCGGGEVAALEKEVAALEKEVAALEKEVAALEK	41.3%	30.6%
1.28 ng/mL	0.126 ng/mL	16.2	44.9	57.2 nM	7	1.7	12	0.0478 s⁻¹	837000 M⁻¹ s⁻¹	DART-A-M17 (bispecific antibody) chain 1: DFVMTQSPDSLAVSLGERVTMSCKSSQSLLNSGNQKNYLTWYQQKPGQPPKLLIYWASTRESGVPDRFSGSGSGTDFTLTISSLQAEDVAVYYCQNDYSYPYTFGQGTKLEIKGGGSGGGGEVQLVESGGGLVQPGGSLRLSCAASGFTFSTTAMNWVRQAPGKGLEWVGRIRSKYNNYATYYADSVKDRFTISRDDSKNSLYLQMNSLKTEDTAVYYCVRHGNFGNSYVSWFAYWGQGTLVTVSSGGCGGGKVAALKEKVAALKEKVAALKEKVAALKE chain 2: QAVVTQEPSLTVSPGGTVTLTCRSSTGAVTTSNYANWVQQKPGQAPRGLIGGTNKRAPWTPARFSGSLLGGKAALTITGAQAEDEADYYCALWYSNLWVFGGGTKLTVLGGGGSGGGGEVQLVQSGAELKKPGASVKVSCKASGYTFTDYYMKWVRQAPGQGLEWIGDIIPSNGATFYNQKFKGRVTITVDKSTSTAYMELSSLRSEDTAVYYCARSHLLRASWFAYWGQGTLVTVSSGGCGGGEVAALEKEVAALEKEVAALEKEVAALEK	44.2%	30.7%
4.16 ng/mL	0.975 ng/mL	52.7	347	107 nM	13	0.7	9.2	0.0375 s⁻¹	352000 M⁻¹ s⁻¹	DART-A-M15 (bispecific antibody) chain 1: DFVMTQSPDSLAVSLGERVTMSCKSSQSLLNSGNQKNYLTWYQQKPGQPPKLLIYWASTRESGVPDRFSGSGSGTDFTLTISSLQAEDVAVYYCQNDYSYPYTFGQGTKLEIKGGGSGGGGEVQLVESGGGLVQPGGSLRLSCAASGFTFSEYAMNWVRQAPGKGLEWVGRIRSKYNNYATYYADSVKDRFTISRDDSKNSLYLQMNSLKTEDTAVYYCVRHGNFGNSYVSWFAYWGQGTLVTVSSGGCGGGKVAALKEKVAALKEKVAALKEKVAALKE chain 2: QAVVTQEPSLTVSPGGTVTLTCRSSTGAVTTSNYANWVQQKPGQAPRGLIGGTNKRAPWTPARFSGSLLGGKAALTITGAQAEDEADYYCALWYSNLWVFGGGTKLTVLGGGGSGGGGEVQLVQSGAELKKPGASVKVSCKASGYTFTDYYMKWVRQAPGQGLEWIGDIIPSNGATFYNQKFKGRVTITVDKSTSTAYMELSSLRSEDTAVYYCARSHLLRASWFAYWGQGTLVTVSSGGCGGGEVAALEKEVAALEKEVAALEKEVAALEK	42.7%	32%
0.372 ng/mL	0.067 ng/mL	4.7	24	12.8 nM	1.6	1.7	2.7	0.0111 s⁻¹	866000 M⁻¹ s⁻¹	DART-A-M12 (bispecific antibody) chain 1: DFVMTQSPDSLAVSLGERVTMSCKSSQSLLNSGNQKNYLTWYQQKPGQPPKLLIYWASTRESGVPDRFSGSGSGTDFTLTISSLQAEDVAVYYCQNDYSYPYTFGQGTKLEIKGGGSGGGGEVQLVESGGGLVQPGGSLRLSCAASGFTFSTYAMNWVRQAPGKGLEWVGRIRSKYNNYATYYADSVKDRFTISRDDSKNSLYLQMNSLKTEDTAVYYCVRHGNFGNSYVSYFAYWGQGTLVTVSSGGCGGGKVAALKEKVAALKEKVAALKEKVAALKE chain 2: QAVVTQEPSLTVSPGGTVTLTCRSSTGAVTTSNYANWVQQKPGQAPRGLIGGTNKRAPWTPARFSGSLLGGKAALTITGAQAEDEADYYCALWYSNLWVFGGGTKLTVLGGGGSGGGGEVQLVQSGAELKKPGASVKVSCKASGYTFTDYYMKWVRQAPGQGLEWIGDIIPSNGATFYNQKFKGRVTITVDKSTSTAYMELSSLRSEDTAVYYCARSHLLRASWFAYWGQGTLVTVSSGGCGGGEVAALEKEVAALEKEVAALEKEVAALEK	49.7%	31.5%
1.22 ng/mL	0.203 ng/mL	15.5	72.3	68.6 nM	8.4	0.6	5.4	0.022 s⁻¹	321000 M⁻¹ s⁻¹	DART-A-M13 (bispecific antibody) chain 1: DFVMTQSPDSLAVSLGERVTMSCKSSQSLLNSGNQKNYLTWYQQKPGQPPKLLIYWASTRESGVPDRFSGSGSGTDFTLTISSLQAEDVAVYYCQNDYSYPYTFGQGTKLEIKGGGSGGGGEVQLVESGGGLVQPGGSLRLSCAASGFTFSTYAMNWVRQAPGKGLEWVGRIRSKYNNYATYYADSVKDRFTISRDDSKNSLYLQMNSLKTEDTAVYYCVRHGNFGNSYVSWFAEWGQGTLVTVSSGGCGGGKVAALKEKVAALKEKVAALKEKVAALKE chain 2: QAVVTQEPSLTVSPGGTVTLTCRSSTGAVTTSNYANWVQQKPGQAPRGLIGGTNKRAPWTPARFSGSLLGGKAALTITGAQAEDEADYYCALWYSNLWVFGGGTKLTVLGGGGSGGGGEVQLVQSGAELKKPGASVKVSCKASGYTFTDYYMKWVRQAPGQGLEWIGDIIPSNGATFYNQKFKGRVTITVDKSTSTAYMELSSLRSEDTAVYYCARSHLLRASWFAYWGQGTLVTVSSGGCGGGEVAALEKEVAALEKEVAALEKEVAALEK	45.1%	31.5%
